Assay results published in paper PMC1874666 (Nucleic Acids Research, 2007).

Biological target: the molecule itself
Experiment: AUC

B1: Helicobacter pylori neutrophil-activating protein (HP-NAP) (natural protein, UniProt P43313 1-144, looked up)
chain: MKTFEILKHLQADAIVLFMKVHNFHWNVKGTDFFNVHKATEEIYEEFADMFDDLAERIVQLGHHPLVTLSEAIKLTRVKEETKTSFHSKDIFKEILEDYKYLEKEFKELSNTAEKEGDKVTVTYADDQLAKLQKSIWMLQAHLA
For B1, the “stoichiometry N” value was 12.
